Test results as given in the nanobody polyreactivity screen of Harvey et al. (2022).

Test: yeast display, Sf9 membrane polyspecificity reagent, FACS + sequencing; frameworks hold sequencing errors
In short: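 Nanobodies from a synthetic yeast display library (Saccharomyces cerevisiae BJ5465), induced 36–48 hours with galactose, were stained 1 hour at 4 °C with 10% biotinylated, detergent-solubilized Sf9 membrane reagent, enriched on streptavidin microbeads, then FACS-sorted. Anti-HA (expression) and streptavidin (reagent binding) fluorescence set low and high (top ~1%) gates. Polyreactivity labels come from the gate of origin. Genes were colony-PCR amplified, MiSeq 2 × 250 sequenced and filtered by CDR length.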

Row | Sequence | polyreactivity (PSR sort gate)
1 | QVQLVESGGGLVQAGGSLRLSSAASGSNFPTNAMGWYRQAPGKETELVAAITDGGSTNYADSVKGRFTISRDNAKNTVYLQMNSLKPEDTAVYYCAAVGFKTVLPEYDYWGKGTQVTVSS | low polyreactivity
2 | QVQLVESGGGLVQAGGSHRLSCAPSGRTYYMYAMGWYRPAPGKEREFVAAITSGGSRNYADSVKGRFTISRDNAKKTVYLQMNSLKPEDTAVYYWARYRGYWGRYYGVDYGYWGQGTQVTVSS | high polyreactivity
3 | QVQLVESGGGLVQAGGSLRLSCAASGRIFRYYAMGWYRQAPGKERELVASITRRGGSTYYADSVKGRFTISRDNAKNTVYLQMNSLKPEDTAVYYCAADTYYNLGNYWGQGTQVTVSS | high polyreactivity
4 | QVQLVESGGGLVQAGGSLRLSCAASGSIFGPYVKGWYRQAPGTERELVASITSSGGSTYYADTVKGRFTISRDNAKNTVYIQMNSLKPEDTAVYYCNAVRFTPTNSHRYYWGQGTQVTVSS | high polyreactivity
5 | QVQLVESGGGLVQAGGSLRLSCAASGLTFRYYAMGWYRQAPGKERELVAAITRGARTNYADSVKGRFTISRDNAKNTVYLQMNSLKPEDTAVYYCNAGFTGLHRYGYWGQGTQVTVSS | high polyreactivity
6 | QVQLVESGGGLVQAGGSLRLSCAASGRIFYGYAMGWYRQAPGKERELVAAISWRGDSTYYADSVKGRFTISRDNAKNTVYLQMNSLKPEDTAVYYCAARRPGYYYPSKFDYWGQGTQVTVSS | high polyreactivity
7 | QVQLVESGGGLVQAGGSLRLSCAASGRIIGSNTMGWYRQAPGKEREFVATISSSGGSTYYADSVKGRFTISRDNAKNTVYLQMNSLKPEDTAVYYCNTRRRYPFRPYPEWRNYYWGHGTQVTVSS | high polyreactivity
8 | QVHLEESGGGIVQAGGSLRLSCAASGSNFGYNAMGWYRQAPGKEREFVARISSRDDRTSYADSVKGRFTISRDNAKNTVYLQMNSLKPEDTAVYYFAAVRFFLTRAWRPLNYWGQGTIVTVSS | high polyreactivity
9 | QVQLVESGGGLVQAGGSLRLSCAASGSTFSNYAMGWYRQAPGKERELVAVITRGASTYYADSVKGRFTISRDNAKNTVYLPMNSLKPEDTAVFYCNVPIRGQLVHTYPYDYWGQGTQVTVSS | high polyreactivity
10 | QVQLVESGGRLVQAGGSLRLSCAACGGIIWYNTMGWYRQAPGKERELVAAISDSGGRTSYADSVKGRFTISRDNAKNTVYLQMNSLKPEDTAVYYCNVDYVVSRGFIYRVDYWGQGTQVTVSS | low polyreactivity
11 | QVQLVESGGGLVQAGGSLRLSCAASGFTFSPNAMGWSTQAPGQEREVVAAITSGGNTYADSVKGRFTISRDNAKNSVYFQMNSLKPDDNAVYYCAKGEGYWYIARYLPVGYGYWGQGTQVTVSS | low polyreactivity
12 | QVQLEDSGGGLVQAGGSLRLSCAASGRTFNKYAMGWYRQAPGKERELVAAINTSGGSTYYADSVKGRFTISRDNAKNTVYLQMNSLKPEDTAVYYCAAQSRSVYGRSYGYWGQGTQVTVSS | high polyreactivity
13 | QVQIVESGGGLVQAGGSLRISCAATGSTFDSFAMGWYRQAPGKERELVDAITRRGTRTYYADSVKGRFTISRDNAKNTVYLQRNSLKPEDTAVYYCNAVTQCSKTPGYGFNYWGQGTQVTVSS | high polyreactivity
14 | QVQLVESGGGLVQAGGSLRLSCAASGGTFYFNAMGWYRQAPGKERELVATIRYSGGSTYYADSVKGRFTISRDNAKNTVYLQMNSLKPEDTAVYYCNARPRYLSPYRPFKYNYWGQGTQVTVSS | high polyreactivity
15 | QVQLVESGGGLVQAGGSLRLSCAASGSTFGWYAMGWYRQAPGKEREFVAAIRGGGSSTYYADSVKGRFTISRDNAKNTVYFQMNSLKPEDTAVYYCAAVTSQLYGNRYYYWGQGTQVTVSS | high polyreactivity
16 | QVQLVESGGGLVQAGGSLRLSCAASGRTFKWNAMGWYRQAPGKERELVAAISSRDGSTYYADSVKGRFTISRDNAKNTVYLQMNSLKPEDTAVYYCNAYFTGARQRTLGYDYWGQGTQVTVSS | low polyreactivity
17 | QVQLVESGGGLVQAGGSLRLSCAASGSIFYSYAMGWYRQAPGKERELVAAISYSSGSTYYADSVKGRFTISRDNAKNTVYLQMNSLKPEDTAVYYCAAEGNGWQVDVTEVGEYDSWGQGTQVTVSS | high polyreactivity
18 | QVQLVESGGGLVQAGGSLRLSCAASGLTFWYYAMGWYRQAPGKERELVARITRSGVGTYYADSVKGRFTISRDNAKNTVYLQMNSLKPEDTAVYYCNARYQYSWVRYGYDYWGQGTQVTVSS | high polyreactivity
19 | QVQHVESGGGLVQAGGSLRLSCAASGSTFDYYAMGWYRQAPGKERELVAAISDSARSTFYADSVKGRFTISRDNAKNTVYLQMNSLKPEDTAVYYCAAYFWSYWRSEGYSWGQGTKVTVSS | high polyreactivity
20 | QVQLVESGGGLVQAGGSLSLSCAASGSIFFVNAMGWYRQAPGKERELVAAISRSGGRTYYADSVKGRFTISRDNAKNTVYFQMNSLKPEDTAVYYCAAEYNPGSYFTYDYWGQGTQVTVSS | low polyreactivity
21 | QVQLVESGVGLVQAGGSLRLSCAASGSTFLTNAMGWNRQAPGKERELVAAINWRGDSTYYADSVKGRFTISRDNAKNTVYLQMNSLKPEDTAVYYCAAKYNHVTDEYDYWGQGTQVTVSS | high polyreactivity
22 | QVQLVESGGGLVQAGGSLRLSCAASGSTFKKYAMGWYRLAPGKERELVAAITGSGGRTYYADSVKGRFTISRDNAKNTVDLQMNSLKPEDTAVYYCAKLNNYGYDYWGQGTQVTVSS | high polyreactivity

Row | Sequence | polyreactivity (PSR sort gate)
23 | QVQLVESGGGLVQAGGSLRLSCAASGSIFLKYTMGRYRQAPGKERELVAAITSGGTTNYADSVKGRFTISRDNAKNTVYLQMNSLKPEDTAVYYCARDSYQLGLIRDPLEYDYWGQGTQETVSS | low polyreactivity
24 | QVQLVESGGGLVQAGGSLRLSCAASGHIYVRYAMGWYRQAPGKERELVAAITSGGSTYYADSVKGRFTISRDNAKNTVYLQMNSLKPEDTAVYYCAARKQQYRFTHDYWGQGTQVTVSS | high polyreactivity
25 | QVQLVESGGGLVQAGGSLRLSCAASGRTFQTYAMGWYRQAPGKERELVASINWSDGSTYYADSVKGRFTISRDNAKNTVYLQMNSLKPEDTAVYYCAADSSAWLYDYWGQGTQVTVSS | low polyreactivity
26 | QVQLVESGGGLVQAGGSLRLSCAASGFTFSRNAMGWYRQAPGKERELVAAISGRTGTTYYADSVKGRFTISRDNAKNTVYLQMNSLKTVDTAVYYCAKSSGRYRSDYWGQGTQVTVSS | high polyreactivity
27 | QVHLVESGGGLVQAGGSLRLSCAASGRTLYCYAMGWYRQAPGKERELVASIRSGGSTNYADSVKGRFTISRDNAKNTVYLQMNSLKPEVTAVYYCNTGSRLDRVDSWGQGTQVTVSS | low polyreactivity
28 | QVQLVESGGGLVQAGGSLRLSCASSGSTFLRNAMGWYRHAPRKERELVAAFSLGSGSTYYADSVKGRFTISRDNAKNTVYLQMNSLKPEDTAVYYCAADVSRWLDYGYDYWGQGTQVTVSS | low polyreactivity
29 | QVQLVESGGGLVQAGGSLRLSWAASGSTFNVYAMGWYRQAPGKERELVAGIRDSDGSTNYADSVKGRFTISRDNAKNTVYLQMNSLKPEDTAVYYCAADLYDINWSVWLDYWGQGTQVTVSS | low polyreactivity
30 | QVQLVESGGGLVQAGGSLRLTCAASGSIFGTYAMGWYRQAPGKERQLVAAISWSDGSTYYADSVKGRFTISRDTAKNTFYLQMNSRKPEDTAVEYCAKVYRSIGPNVSRYGLSYYDWGHGTQVTVSS | low polyreactivity
31 | QVQLVESGGGLVQAGGSLRLSCAASGFTFYDYAMGWYRQAPGKERELVAVITRRGGSTYYADSVKRRFTISRDNAKKTVDLQMNSLKPEDTAVYDCAADWRGWSFVRGDDYWGHGTQVTVSS | high polyreactivity
32 | QVQLVESGGGLVQAGSSLRLSCAASGRTFTGNAMGRYRQAPGKERELVADISSDGSTNYADSVKGRFTISRDNAKNTVYLQMNSLKPEDTAVYYCAADPFWTYYIDYDYWGQGTQVTVSS | low polyreactivity
33 | QVQLVETGGGLVQAGGSLLLSCAASGNTFQYYAMGCYRQAPGKERELVAAITTGGSTNYADSVKGRFTISRDNAKNTVYLQMNSLKPEDTAVYYCAARGCVSKRISDYWGQGTQVTVSS | low polyreactivity
34 | QVQLVESGGGLVQAGGSLRLSCAASGRTFYDNAMGWYRQAPGKERELVAVISTSGARTYYADSVKGRFTISRDNAKNTVYLQMNSLKPEDTAVYYCAARRYKYSWDSGYDLYYWGQGTQVTVSS | high polyreactivity
35 | QVQLVESGGGLVQAGGSLRLSCAASGFTFLRNAMGWYRQAPGKERELVATISTSGGSTYYADSVKGRFTISRDNAKITVYLQMNSLKPEDTAVYYCAKRYRTRDSGYDYWGQGTQVTVSS | high polyreactivity
36 | QVQLVESGGCLVQAGGRLRLSCAASGRIFHDNGMGWYRQAPGKERELVAAISRGGSTYYADSVKGRFTISRDNAKNTVYLQMNSRKPEDTAVYYCNVDSFRYRHTGYCDTRYGYWGQGTQVTVSS | high polyreactivity
37 | QVQLVESGGGLVQAGGSLRLSCAASGFIFRYYAMGWYRQAPGKEREFVAVISSGGGRTYYADSVKGRFTISRDNAKNTVYLQMNSLKPEDTAVYYCAKGYRYWVRIVRSFTSYDYWGQGTQVTVSS | high polyreactivity
38 | QVQLVESGGGLVQAGGSLRLSCAASGRISFNAMGWYRQAPGKERELVAAITSSGGRTYYADSVKGRFTISRDNAKNTVYLQMNSLKPEDTAVYYCATGSPGGSPGWGRTTGRLGYWGQGTQVTVSS | high polyreactivity
39 | QVQLVESGGGLVQAGGSLRLSCAASGSTFDPNVMGWYRQAPGKERELVAAITWSGGSTSYADSVKGRFTISRDNAKNTVYLQMNSLKPEDTAVYYCAADWHSWRWGYYYWGQGTQVTVSS | low polyreactivity
40 | QVQLVESGGGLVQAGGSLRLSCAASGRTLSRYTMGWYRQAPGKERELVAAISTSGSTYYADSVKGRFTISRDNAKNTVYLQMNSLKPEDTAVYYCYAVRRYLQYATGYDYWGQGTQVTVSS | high polyreactivity
41 | QVQLVESGGGLVQAGGSLRLSCAASGSIFVTNAMGWYRQAPGKEREMVATITSSGSTNYADSVKGRFTISRDNAKNTVYLQMNSLKPEDTAVYYCAKRWLWYYWGFAPSDYWGQGTQVTVSS | low polyreactivity
42 | QVQLVESGGGLVQAGGSLRLSCAASGSTFVIYAMGLYTQAPGKERELVAAISRRTGSTYYADSVKGRFTISRYNAKNTVYLQMNSLKPEDTAVYYCAADYRYYTKYYGYLTYYYWGQGTQVTVSS | high polyreactivity
43 | QVQLVESGGGLVQAGGSLRLSCAASGRTFYYYAMGWYRLAPGKERELVAAISNRGGSTYYADSVKGRFTISRDNAKNTVYLQMNCLKPEDTAVYYCARRYSYLYTYGSWGQGPQVTVSS | high polyreactivity
